From US20210292409A1 (Chugai, published 2021)
One block for each binder: values may come before it.

Assays:
[1] = molecular target: T1, human IL6R (Accession no. NP_000556) (human, UniProt P08887 20-468); assay: flow cytometry on HeLa/BirA cells transfected with human IL6R; antibody at 1 micro M in the sorting step
T1 construct: whole, on cells; Expressed on Flp-In-CHO cells (IL6R+CHO)
T1 sequence (looked up): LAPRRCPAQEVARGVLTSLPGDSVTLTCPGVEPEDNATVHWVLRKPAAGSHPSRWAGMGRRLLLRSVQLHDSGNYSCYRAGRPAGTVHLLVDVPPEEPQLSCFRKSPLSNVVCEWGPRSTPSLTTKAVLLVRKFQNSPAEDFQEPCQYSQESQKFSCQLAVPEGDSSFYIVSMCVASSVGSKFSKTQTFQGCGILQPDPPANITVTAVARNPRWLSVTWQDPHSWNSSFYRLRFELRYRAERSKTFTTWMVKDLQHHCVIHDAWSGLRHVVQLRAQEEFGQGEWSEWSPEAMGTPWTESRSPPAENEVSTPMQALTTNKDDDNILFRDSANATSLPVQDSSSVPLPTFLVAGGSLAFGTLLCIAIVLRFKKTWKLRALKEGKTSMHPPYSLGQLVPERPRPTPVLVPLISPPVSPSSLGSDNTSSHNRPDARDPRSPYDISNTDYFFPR
Method: To select cells stably expressing IL6R, antibiotic resistant cells were incubated with 1 micro M of anti-IL6R antibody PF1H-G4T1K439E.Avi/PF1L-KT0 (heavy chain, PF1H-G4T1K439E.Avi (SEQ ID NO: 66); light chain, PF1L-KT0 (SEQ ID NO: 67) in MACS buffer (Auto MACS Rinsing Solution (Miltenyi Biotec, Cat #130-091-222) and MACS BSA Stock Solution (Miltenyi Biotec, Cat #1130-091-376)) for 30 min on ice. After wash in MACS buffer, cells were further incubated with R-phycoerythrin (PE) labelled anti-kappa antibody (Southern Biotech, Cat #2060-09) for 30 min on ice in MACS buffer. After wash in MACS buffer, cells expressing IL6R were sorted by FACSAria IIu sorter (Becton Dickinson). Selected clones were then expanded. Flow cytometry using anti-IL6R antibody PF1H-G4T1K439E.Avi/PF1L-KT0 and R-phycoerythrin (PE) labelled anti-kappa antibody (Southern Biotech, Cat #2060-09) with FACS Verse (Becton Dickinson) confirmed high expression of IL6R. BirA expression was also confirmed by capillary immunoassay using Simple Western Wes (Protein Simple).

[2] = molecular target: T2, human ASGPR (ASGPR-H1 and ASGPR-H2 subunits) (human, UniProt P07306 2-291; P07307 2-311); assay: flow cytometry on HeLa/ASGPR/BirA cells
T2 construct: Plasmids for H1 and H2 transfected in a ratio of 2:1 into HeLa cells; also called Asialoglycoprotein receptor
T2 sequence 1: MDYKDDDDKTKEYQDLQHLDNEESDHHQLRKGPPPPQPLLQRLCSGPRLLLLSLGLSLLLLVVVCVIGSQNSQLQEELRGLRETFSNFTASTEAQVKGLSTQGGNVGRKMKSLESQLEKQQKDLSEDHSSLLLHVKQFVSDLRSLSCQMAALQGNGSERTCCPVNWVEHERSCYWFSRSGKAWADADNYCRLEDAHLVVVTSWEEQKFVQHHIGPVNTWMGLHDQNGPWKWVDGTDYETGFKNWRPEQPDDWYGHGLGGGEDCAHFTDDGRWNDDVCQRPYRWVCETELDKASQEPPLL
T2 sequence 2: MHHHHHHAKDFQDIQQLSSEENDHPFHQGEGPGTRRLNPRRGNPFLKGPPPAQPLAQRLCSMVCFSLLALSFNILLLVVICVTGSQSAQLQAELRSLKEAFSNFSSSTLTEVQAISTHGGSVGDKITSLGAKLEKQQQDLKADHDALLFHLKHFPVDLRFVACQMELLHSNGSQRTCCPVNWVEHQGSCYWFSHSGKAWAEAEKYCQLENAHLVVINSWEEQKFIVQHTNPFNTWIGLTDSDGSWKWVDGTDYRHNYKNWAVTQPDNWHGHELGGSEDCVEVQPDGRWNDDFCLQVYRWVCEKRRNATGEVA

binding result [1]: binds
B1: anti-IL6R antibody PF1H-G4T1K439E.Avi/PF1L-KT0 (antibody, human IgG4 S228P, kappa, V domains shown)
VH: QVQLQESGPGLVKPSETLSLTCAVSGYSISDDHAWSWVRQPPGEGLEWIGYISYSGITNYNPSLKGRVTISRDTSKNQFSLKLSSVTAADTAAYYCARVLARITAMDYWGEGTLVTVSS
VL: DIQMTQSPSSLSASVGDSVTITCQASQDISSYLNWYQQKPGKAPELLIYYGSELHSGVPSRFSGSGSGTDFTFTISSLEAEDAATYYCGQGNRLPYTFGQGTKVEIER

binding result [2]: binds
B2: anti-ASGPR antibody AGA0008Ha-G4T1K439E.Avi/AGA0008La-kOMC (antibody, human IgG4 S228P, kappa, V domains shown)
VH: QSVEESGGRLVTPGTPLTLTCTVSGFSLSSYAMGWVRQAPGKGLEYIGFINTGGSPYYASWAKGRFTISRTSTTVDLKMTSPTTEDTATYFCARDYDTSSGYYGYFNLWGPGTLVTVSS
VL: AQVLTQTPASVSAAVGGTVTIKCQASENIDSYLAWYQQKPGQPPKLLIYRASTLASGVPSRFKGSGSGTPFTLTISDLECADAATYYCQRYVSLNSGDAFGGGTKVEIKR
